This assay addresses transcobalamin saturated with vitamin B12 (holoTC) (human (endogenous in serum)) (UniProt P20062). The assay is described as follows: co-IP; serum samples of 6 pregnant women (weeks 15, 25 and 35) exposed to anti-TC coated magnetic beads; sCD320 measured by in-house sandwich ELISA before and after the precipitation. (In general: An ELISA detects its analyte on a solid surface through an enzyme-linked reagent.)

For orientation: stoichiometry N means a count of units in the complex or per binding partner.

UniProt P20062, sequence (P20062 19-427): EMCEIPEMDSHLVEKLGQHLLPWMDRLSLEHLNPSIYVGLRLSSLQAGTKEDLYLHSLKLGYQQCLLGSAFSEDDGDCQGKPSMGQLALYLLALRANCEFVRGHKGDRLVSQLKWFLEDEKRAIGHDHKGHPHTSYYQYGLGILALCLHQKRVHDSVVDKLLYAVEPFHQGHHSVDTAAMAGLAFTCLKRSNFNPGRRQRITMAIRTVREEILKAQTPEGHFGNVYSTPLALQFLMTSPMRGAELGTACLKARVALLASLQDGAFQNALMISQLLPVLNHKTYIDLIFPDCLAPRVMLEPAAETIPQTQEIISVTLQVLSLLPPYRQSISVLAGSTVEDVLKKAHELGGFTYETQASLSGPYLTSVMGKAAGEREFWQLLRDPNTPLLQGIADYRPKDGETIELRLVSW

Take “soluble CD320 (sCD320), soluble receptor for transcobalamin-vitamin B12 (from UniProt Q9NPF0 36-229)”: the percent of sCD320 removed by precipitation with antibodies against TC (week 15, median) is 36%; the percent of sCD320 removed by precipitation with antibodies against TC (week 25, median) was found to be 36%; the percent of sCD320 removed by precipitation with antibodies against TC (week 35, median) is 40%; the stoichiometry N is 1.

The record behind these values is paper PMC3754917.
